Consider 21 sequences from the DeepSol protein solubility set.

The data set is described as follows: soluble on expression in E. coli; label from the status in PepcDB or PDB records.
Regarding “MGSDKIHHHHHHMSEIWRQCKGERHIRPLQGRLVRLVESQEQVATLQLVDTLEEQALLEELLESSKPPVPADAEPLHYLLKTPFRYPPLRWGSRFGRRHEPSLFYAALKLETAMAESAYYRCVLWSGMVVPPPSGRILSEHASFEAGWKVERGIRLQAPPFSDHEAALTDIADYRAPQELGSAMRSAGVQAFEYRSARCPERGCNVALFTPAAFTEKRPRNLTPWLCETTAGYVAFKPAHVPGSPKIFSWELFLVDGKLPHPA”, the “soluble on expression in E. coli” value is reported as “not soluble”.

Consider “MDKKPSKKKVAIIGGGVAGSTIAMYLSKFDIEIDLFEQGTSLVNGPPICHLHAGGNLYREISDEQCIALLTESIQTAQFFPHSLNIRPTIIAVPKDDRAEASDLLPRLNLLQKHYLELIEQSKKNEVFGRPEDYFTTFTKQELFEIAKLEPTNQPRSMTEWMIPFAKTTDLEQIKYPVVIVQEYGLSVFRMASTAQLVLSEQSNVNLHLSCRVEKLNKQDNGNWFLSFSNSDTVTSCNFDYVINCAGFRTGIIDDLAQQQTKRLVEFKAAYVTHWNSDFFGKWPEVIFHGERGTPKGMAQLTPYPNGYFQLHGMTEEITLFKDGLSRSSELSSQPQLPEKFINKITNGWKESIQQERTEKAIKHLSQFISSFETASTAGKPLYGAQQIPGDDITLRAATINYDGHGYFRAEIVKASSAIECAKQIAQTIKLSTEINTLTQPSNDDVCHLAEQFAIERGYPVELAQTYLEHHHHHH”, for which the “soluble on expression in E. coli” value is “not soluble”.

As to “MFAHQNASFPPRPEGRGGKEAVFRLTVFCIITFSSLICEAMKRAYKYRFYPTTEQAELLAQTFGCVRFVYNSILRWRTDAYYERKEKIGYLQANARLTALKKEPEFAWLNDVSCVPLQQSLRHQQTAFANFFAGRAAYPAFKSKRHKQAAEFTASAFKYRDGKLYMAKNKIPLDVRWSRPLPSVPSTVTISKDAAGRYFVSCLCEFEPASLPITSSMVGIDVGLKDLFVTDTGFRSGNPRHTAKYAARLALLQRRLSKKAKGSKNRAKAHLKVARLHAKIADCRLDALHKATRKLINDNQVVCVESLKVRNMIRNPSLSKAIADASWGELVRQLRYKGEWAGRSVVAIDQFFPSSKRCSCCGFIMKKMPLDVRKWQCPECGTDHDRDVNAARNIKAAGLAVLAHGEPVNPESLKAALEHHHHHH”, the “soluble on expression in E. coli” value is reported as “not soluble”.

Take “AGTKLSLMPWFHGKITREQAERLLYPPETGLFLVRESTNYPGDYTLCVSSDGKVEHYRIMYHASKLSIDEEVYFENLMQLVEHYTSDADGLCTRLIKPKVMEGTVA”: the “soluble on expression in E. coli” value is “soluble”.

On to “MQHFSRSVALLALSAGTLTSLPALAADELHYNQISLRAEVSQEVARDLMIVTLYSESQNTDPAKLAAEITTTMNKALDQARQVKDVTLRQGSRNSYPIYDGKGQKITGWRERAELRLESSDFAALSKLTGELLGDLKMGGMDFAIADPTRKASEDALLKDAVKAFKARAQLATEALGGKGYKIVNLNLNSNGYPQPYMRAPMMMKAASMDSAPVTPEVEAGTSQVSMTADGAIEVLMPLEHHHHHH”, for which the “soluble on expression in E. coli” value is on record as “soluble”.

As for “MSLEVYYPGSVVFPADATLEQKVEMAAKVVPTLQQLAWQQMELTAFLHFGINTFTDSEWGDGKEDPALFNPVELDARQWVRILHEAGFRMVILTAKHHDGFCLWPTATTRHSVASSPWREGKGDVVKEVRAACEEYGMKFGIYLSPWDRNAECYGDSHRYNRFFVSQLTELLTHYGEVHEVWFDGANGEGPNGKRQEYDWETFYDTIRRLQPQAVMAIMGDDVRWVGNERGLGRTTEWSATVLTPGIYSRSKTERNRLGIRENSPDLGSREVLKEAGEIFWYPSEVDVSIRPGWFYHAAEDKKVKSLDKLVDIYFQSVGYNSVLLLNVPPDRRGLIHEADALRLKEWADYLGRAFAHDRVVDSARYAVVQGHAVEEYALESKTHINILMLQEDITKGQRTEAFTVEAWVDGAWQEIGRGTTIGYKRLLRIPAVETDRIRVRIEQEGHHHHHH”, the “soluble on expression in E. coli” value was “not soluble”.

Regarding “MSNKTKLKDNKELLYQVVLSYKVSHNYPLKAFLIECKNKLNECIDMIWNNIKYTKKDNPKLPKSNEFKRELRNKLLENWNYASHYIDGIIKTSYSILQSWASNYKRGYRTKTKPIAKRLFVRVKTTLIKYDKEKGEIRITIKPRKDYLILNIKNEWFFDKVKNLTIGEIILKEKETFLTFKDNLNYSDKGMIVGVDSNLRSLDLFHPIEGWTRVDLTELHRIKEVYDRKIDFLKKLLKKFPLRAMRKINRLFERRRNRVKDFLHKLTIQLSRLFPDAIFVFEDLNKRRMYKSKYFNRKIDRVNWNGLIEKISYKTIVILVNPAYTSTICPICGSRMESQEGQVVYCSNCLNSFNRQLVGCYNIFKRGLGNIKEIMGGSGVTTTGVEVSFGKLMTPNPNVIYIVDYNGKYFNEIA”, the “soluble on expression in E. coli” value is given as “soluble”.

Regarding “MGSDKIHHHHHHMSTEHLLLVSLLKKLKDDALVLPTLPEVAMRVQEVVGRSDASLKQVAEVIGQDAAISARIIKVANSALYSRGVPAESINSAVSRIGLIQIKSIATSVAMEQLFISTNEMVWEVMDEVWRTSIDVTAAACAMLQMYNKRHSTSRLNFDTLTLAGLVHNIGALPVLTEAEAQPHLFTSIDQLRALVRKMQGPLGRAVLKSWDFSTEVMEVVERWADLPYLPDHVTYLDFIRAAAFYTGELRAGTELEQRLGVFVARGLPVTTDDLASDEFMEKFHSIRESYQ”, the “soluble on expression in E. coli” value is “not soluble”.

As to “MGSDKIHHHHHHVNETSHSLEYEAFIEEARHVVEARFGHTGTTGEVPRLLLRHGTVRMARDMARGIRPCQVKMPDVSGLQYGDFAPLDPLALLRDEVKLPSLPAVVAELRDVLSSPNSSAADVARVISRDAGLSAFLLRMVNSAFYSFPSRIDTVSRAVALVGRQQLSTLALGVMVIGAMRDLPVAHLDLSLFWQHSIACAVVAGQLAEAAGMEEPERFFVAGLLHDIGRLAVFSLLPDRAAAILSMCSDYGMPAQDAELRVLGFDHATLGGMLLRKWNFPMSLVFSTLHHHVPERSVRHVEPAVVHVADVVVKGLGIGVSGMHQLPGFKEDAWQRLGVSVAVLEQLIDGLEERLRDTSSLLLE”, the “soluble on expression in E. coli” value is “not soluble”.

For the sequence “GPGSMEYVGALYKDYGELLSTAQNSFLNVQSDVEGVEDVKNICARLHISIHRWEHSEELYAVRNQLHLQTQVLKAHSDHSSRVLQECVQRDELIKMHTEKSALLATKLRKQSSEVDKLQKECDKLDRKIAKRSEVAQKDLDAMAVKSTATVLSLTSQFFKVMHKNGAFIADRFSPDRAGVGAHDFDTASDDAVTGTLRRLHSVRSEMSSVAPSAVYGQNYNTFHPSEADTRVSDGARNSGIPLRYETSVPPAMSA”, the “soluble on expression in E. coli” value was “not soluble”.

For “MITFTANIDGSQANAGTGTGSLGMGVANILFDDLSNEFSWDISWSGLTGNVTAAHFHGPALLNQNAGVQVAISTLSNPTSGSDTINTAQAADLLAGLWYINIHTDTSPSGEIRGQVQVASVPEPGTLSLLLLSMIGVFYSRSKILLEHHHHHH”, the “soluble on expression in E. coli” value is “not soluble”.

Consider “SNAMEHKIVHVGDIPVANDKPFTLFAGMNVLESRDLAMQICEHYVKVTDKLGIPYVFKASFDKANRSSVHSYRGPGLEEGMKIFQELKETFGVKIITDVHTEAQAQPVADVVDVIQLPAFLARQTDLVEAMAKTGAVINVKKPQFMSPGQVGNIVEKFAECGNDKVILCERGSCHGYDNLVVDMLGFGVMKQASNGSPIIFDVTHSLQMRDPSGAASGGRREQTVELAKAGLATGIAGLFIEAHPNPDKARCDGPSALPLDKLEPFLAQMKALDDLIKSFAHIDIR”, for which the “soluble on expression in E. coli” value is “soluble”.

Regarding “MSLELDAVSRSYKRWAPIYDFSFGKVSESPRRRTAAHVNARGGRVLEVGVGTGLSLPLYSHRVAVTGIDFSHEMLARAREKVEEMGLEPVKELRQMDARELDFPDETFDTVVAMFLVSVVPEPERVVSEMARVCRKGGEVVIVNHFARDKGPLAAVEKALARFENTLGWHSDFAIERVTADPRLEVVEQTPMSPGGLFTFLRFQRREGHHHHHH”, the “soluble on expression in E. coli” value was “soluble”.

Regarding “SEKLINRVGPNGESRAQAVTSDQEKRLLHQLREITRVMKEGKFIDTSPEKEAEEAPYMEDWEGYPEETYPIYDLSDGIKRRQETILVDYPDLKEPSAEEIAEQMGEIEEEGSERLSWDHLPTDPGAQKDNSVAPCDPKPESCSCCVHEEEDPAVLAENAGFSADGYSEQEEATKENLPQDFTNEGLGVSTDNAHVGGMLRKRNPQGFE”, the “soluble on expression in E. coli” value was “soluble”.

For “MAADGTYDELERGEKSKLRDDVVDIQKKPFSILFMGVEDYSTNGEHGRTDSLIVVTLDPKKKSMKMLSIPRDTRVHLASDTTGTKTKINAAYAKGGKDETIETVEDFLGIPIDYYATVDFDGFKDVIDEIGGIDVDVPFDFSEKSDVSKSKRIYFKKGNMHLNGEEALAYARMRKQDKRGDFGRNDRQKQILKAALDQISKPQNLAKIDTIAQKASKNIQTNFRITQALALQQIYSGFAGDDIKTLNITGQDLTIANVYYFEPDQQNLENVQNELTHHLYPLEHHHHHH”, the “soluble on expression in E. coli” value was “soluble”.

Regarding “MKIVGIYLAAGKSRRTGPGLHKLYLPTGNTLLGNKALHTSLSSNLSDVIVVSNQPSWLLHYTQVERVHILSCEKSCLGQSYSLHCGLEKAESMNADGVVVMLADQPFITVKLLNSLIDSYEHLPQLDYVAASFQGIPQPPILFSKGIFPSLKKLKGDQGARSIFFDKSFQGKITVYSDAKLFYDVNTIEDYNVIKNSLLLEHHHHHH”, the “soluble on expression in E. coli” value is “not soluble”.

Turning to “MISRHFTVLTALNLQTKIKICIRNFSIRGAMTKVNGNSNGNGISASTDLLDTPSAYTQKSNKTHTSIDLRSDTVTVPSVEMRRAMAEAIVGDDVYGEDTTTNRLEQRCAELFGKEAGLFVTSGTMGNLLAIMAHCQRGEEIIVGRYNHIHRWEQGNYAQFAGISATTLEVKPDGTMDLNDIEQAIRVKGGYVQIKDESCDDLEVTSIPDCHMPASKLICIENTHNYTGGKALPIEWMRSVKQLAERRDLKVHMDGARIYNAAVASNCSVSKIASFADTVQMCFSKGLGAPVGSIVVGPKDFIDRARHSRKALGGGWRQSGILAAAAHIALDHADATIRADHERAKTLARMINDATPEEFRTKVFAAEKDITNMVLVHCQNGVTVQQLTDFFQKHDILAMTFDARRIRMVLNWNVSDENLETIVEVYKKFLKQL”, the “soluble on expression in E. coli” value is recorded as “not soluble”.

Regarding “MVAPSFPLFNLPQKNLKDVFCNMSVIQQTCISLISEKTRNLVREFHIFKQLQVCLDFIFLPDYHFYLKGSAKFIFIPHNRKFIARSSSGEHSNYSVPQFDAKSWLKHLIYIFNVTEIHSLRSRFFDWDLREPRLKMPKECLKNLKILNLSIGFTNKISLVVELYSAFQHIKKFSLRQYSHKPLDSTLLLELRHLLSKTNQQLCLNINLPLNELLLTSCSSIDIHRTQLTDKDINVFLKHWFAGLKPELEHFRVRKDGPAFNQKTILKGIPHEFASIGRKFKLFEMDSQVGGIDIDLGQDIKATLVFNHKPGIADFSVAVHNSKYFFC”, the “soluble on expression in E. coli” value is “not soluble”.

On to “MIEAVKPKVLATRLIPNVAPELAGQLGLAQYQRSIGMITCNIDDSTYVALDEATKKADVAVVYAKSFYAGAAHASGPRSGEVIGILAAANPADVRAGIDACIAYLENEAFFYSHDGGKTAWFPHTISSTGSYLSQIAGIPEGEPLAYLIAPPLEAIYGIDAALKAADVAMKVLYGPPTETNFGGALLTGTQSACRAACEDFQRAVIDVAENGMKY”, for which the “soluble on expression in E. coli” value is listed as “not soluble”.

“MISLEDASLTKKGIVKLSSATDSDSEALAATPKAVKTVMGEVRTKAPLDSPAFTGTPTTPTPPGDAKGLQTTNAEFVRKLIAALVGSVLEPLDTLQELADALGNDPNFATTVLNKLAGKQPLDETLTALSGKSVDGLIEYVGLRETISRAADALQKSQNGGDIPDKDLFVRRIGAARAFDGAVIIGCDDNPWTTAEFIVWLESQGAFNHPYWMCRGSWSYAYNKIITDTGCGNICLAGAVIEVMGVRGAMTIRVTTSHSVSGW”: the “soluble on expression in E. coli” value is on record as “not soluble”.

“GPGSMAAIGGGSGDIEELLKQITNHPGVQGIIIVNTDGIPIRHTFQEHSRLLAVQYSALFQSLAMKARNAVLEIDNNNELLFLRVRTKKHEVLVAPDTKYLLIVIQQVESGDAVPNANGVSA”: the “soluble on expression in E. coli” value is recorded as “not soluble”.
